Paper PMC5481773, “Structural insights into the function of ZRANB3 in replication stress response” (Nature Communications, 2017)
Changes are numbered by the printed parent chain. Names and notes keep the numbering of the source.

B1: N1036A: ZRANB3 HNH active site mutant (protein, UniProt Q5FWF4 1-1079, looked up, variant N1036A)
DNA annealing helicase and …: MPRVHNIKKSLTPHISCVTNESDNLLDFLPDRLRAKLLPFQKDGIIFALKRNGRCMVADEMGLGKTIQAIGITYFYKEEWPLLIVVPSSLRYPWTEEIEKWIPELSPEEINVIQNKTDVRRMSTSKVTVLGYGLLTADAKTLIDALNNQNFKVVIVDESHYMKSRNATRSRILLPIVQKARRAILLTGTPALGRPEELFMQIEALFPQKFGRWTDYAKRYCNAHIRYFGKRPQWDCRGASNLNELHQLLSDIMIRRLKTEVLTQLPPKVRQRIPFDLPSAAAKELNTSFEEWEKIMRTPNSGAMETVMGLITRMFKQTAIAKAGAVKDYIKMMLQNDSLKFLVFAHHLSMLQACTEAVIENKTRYIRIDGSVSSSERIHLVNQFQKDPDTRVAILSIQAAGQGLTFTAASHVVFAELYWDPGHIKQAEDRAHRIGQCSSVNIHYLIANGTLDTLMWGMLNRKAQVTGSTLNGRKEKIQAEEGDKEKWDFLQFAEAWTPNDSSEELRKEALFTHFEKEKQHDIRSFFVPQPKKRQLMTSCDESKRFREENTVVSSDPTKTAARDIIDYESDVEPETKRLKLAASEDHCSPSEETPSQSKQIRTPLVESVQEAKAQLTTPAFPVEGWQCSLCTYINNSELPYCEMCETPQGSAVMQIDSLNHIQDKNEKDDSQKDTSKKVQTISDCEKQALAQSEPGQLADSKEETPKIEKEDGLTSQPGNEQWKSSDTLPVYDTLMFCASRNTDRIHIYTKDGKQMSCNFIPLDIKLDLWEDLPASFQLKQYRSLILRFVREWSSLTAMKQRIIRKSGQLFCSPILALEEITKQQTKQNCTKRYITKEDVAVASMDKVKNVGGHVRLITKESRPRDPFTKKLLEDGACVPFLNPYTVQADLTVKPSTSKGYLQAVDNEGNPLCLRCQQPTCQTKQACKANSWDSRFCSLKCQEEFWIRSNNSYLRAKVFETEHGVCQLCNVNAQELFLRLRDAPKSQRKNLLYATWTSKLPLEQLNEMIRNPGEGHFWQVDHIKPVYGGGGQCSLDALQTLCTVCHKERTARQAKERSQVRRQSLASKHGSDITRFLVKK
B2: D1020A: ZRANB3 HNH active site mutant (protein, UniProt Q5FWF4 1-1079, looked up, variant D1020A)
DNA annealing helicase and …: B1 DNA annealing helicase and … with D1020A, A1036N
B3: H1021A: ZRANB3 HNH active site mutant (protein, UniProt Q5FWF4 1-1079, looked up, variant H1021A)
DNA annealing helicase and …: B1 DNA annealing helicase and … with H1021A, A1036N
B4: H1045A: ZRANB3 HNH active site mutant (protein, UniProt Q5FWF4 1-1079, looked up, variant H1045A)
DNA annealing helicase and …: B1 DNA annealing helicase and … with A1036N, H1045A
B5: K984A: ZRANB3 basic residues HNH mutant (protein, UniProt Q5FWF4 1-1079, looked up, variant K984A)
DNA annealing helicase and …: B1 DNA annealing helicase and … with K984A, A1036N
B6: R987A: ZRANB3 basic residues HNH mutant (protein, UniProt Q5FWF4 1-1079, looked up, variant R987A)
DNA annealing helicase and …: B1 DNA annealing helicase and … with R987A, A1036N
B7: K988A: ZRANB3 basic residues HNH mutant (protein, UniProt Q5FWF4 1-1079, looked up, variant K988A)
DNA annealing helicase and …: B1 DNA annealing helicase and … with K988A, A1036N
B8: K998A: ZRANB3 basic residues HNH mutant (protein, UniProt Q5FWF4 1-1079, looked up, variant K998A)
DNA annealing helicase and …: B1 DNA annealing helicase and … with K998A, A1036N
B9: R1009A: ZRANB3 basic residues HNH mutant (protein, UniProt Q5FWF4 1-1079, looked up, variant R1009A)
DNA annealing helicase and …: B1 DNA annealing helicase and … with R1009A, A1036N
B10: K1046A, R1048A: ZRANB3 double mutant in helix α8 (protein, UniProt Q5FWF4 1-1079, looked up, variant K1046A R1048A)
DNA annealing helicase and …: B1 DNA annealing helicase and … with A1036N, K1046A, R1048A
B11: H1015A: ZRANB3 HNH active site mutant (protein, UniProt Q5FWF4 1-1079, looked up, variant H1015A)
DNA annealing helicase and …: B1 DNA annealing helicase and … with H1015A, A1036N
B12: T66A: cancer associated ZRANB3 mutant (protein, UniProt Q5FWF4 1-1079, looked up, variant T66A)
DNA annealing helicase and …: B1 DNA annealing helicase and … with T66A, A1036N
B13: R947Q: cancer associated ZRANB3 mutant (protein, UniProt Q5FWF4 1-1079, looked up, variant R947Q)
DNA annealing helicase and …: B1 DNA annealing helicase and … with R947Q, A1036N
B14: D1020Y: cancer associated ZRANB3 mutant (protein, UniProt Q5FWF4 1-1079, looked up, variant D1020Y)
DNA annealing helicase and …: B1 DNA annealing helicase and … with D1020Y, A1036N

Columns and labels:
[1] = test system: splayed DNA duplex; test: Nuclease assay with wild-type and mutant ZRANB3 proteins; assay type: biochemical; details: 200 nM nuclease, 10 nM fluorescently labelled DNA substrate, 2 mM ATP, 30 °C, 60 min, native PAGE (Fig. 3c)
Source text: Figure 3 Characterisation of the ZRANB3 HNH active site. (a) Overlay of the T4 endonuclease VII (yellow) and the ZRANB3 HNH (white) structures. […] (b) Overlay of the T4 endonuclease VII (yellow, labels in italics) and the ZRANB3 HNH (white) structures. Mg^2+ ion in T4 endonuclease is shown as a purple sphere. His1021, Asp1020 and His1045 in the HNH structure overlap with the active site residues of T4 endonuclease VII. (c) Nuclease assay with the wild-type and mutant ZRANB3 proteins in the presence and absence of ATP. Reactions were analysed by native poly-acrylamide gel electrophoresis. Indicated are mobilities of the fluorescently labelled DNA substrate and product. (d) Nuclease assay with non-hydrolysable ATP homologues. Shown are controls with the wild-type ZRANB3 and the ATPase dead K65R mutant in the presence of ATP.
Oligonucleotides used in the nuclease assays (5′-[…]-[…]-3′ and Cy3 5′-end-labelled 5′-[…]-[…]-3′) were incubated in 10 mM Tris-HCl pH 7.5, 50 mM NaCl for 3 min at 94 °C, after which the reactions were allowed to gradually cool down.
The nuclease assays with ZRANB3 was performed essentially as described in ref. [9]. Briefly, reaction mixtures containing the indicated nuclease (200 nM) and fluorescently labelled DNA substrate (10 nM) in 10 μl of reaction buffer (50 mM Tris-HCl; 50 mM NaCl; 5 mM MgCl2; 2 mM ATP (Sigma); pH 7.5) were incubated at 30 °C for 60 min. The reactions were stopped by incubation with 0.1% SDS and 4 mg ml^−1 of proteinase K at 30 °C for 45 min. The reactions were then mixed with sucrose (10% final concentration) and resolved in a 10% polyacrylamide gel in 0.5 × TBE buffer (45 mM Tris-borate, 1 mM EDTA; pH 7.5). The fluorescent DNA species were visualized and quantified using Pharos Mx imager and Quantity one software (BioRad).

[2] = NADH-coupled ATPase assay of ZRANB3 proteins; assay type: biochemical; details: 150 nM ZRANB3, 5 mM ATP, 0.5 μM flap DNA, 24 °C, average rates; for ATP hydrolysis rate: A340 nm
Method: The NADH-coupled ATPase assay is based on a reaction in which the regeneration of hydrolysed ATP is coupled to the oxidation of NADH[59]. It was used as described, with minor modifications. ZRANB3 (150 nM) was added to a 150 μl reaction containing 25 mM Tris-Cl pH 7.5, 13 mM MgCl2, 1.8 mM DTT, 100 μg ml^−1 BSA, 3 mM phosphoenolpyruvate, 36 U ml^−1 pyruvate kinase, 20 U ml^−1 lactate dehydrogenase, 0.5 μM flap DNA, and 5 mM ATP, with 750 μM NADH added immediately before ZRANB3. Reactions were mixed for 1 min on a shaker at 23 °C and analysed by measuring A340 nm at 20 s intervals during 60 min, on a Spectramax 250 microplate spectrophotometer at 24 °C. Linear titration of freshly prepared NADH was performed to obtain a standard curve for units of absorbance mM^−1 NADH. ATPase rates were calculated from data collected between time points where product formation was linear with respect to time.

Row | Molecule | ZRANB3 endonuclease activity of mutant protein [1] | ATP hydrolysis rate [2] | k [2]
1 | B1 | substantially reduced | 14.05 ± 2.46 µmol/L/min | 93.71 ± 16.43 min⁻¹
2 | B2 | completely abrogated | 12.94 ± 0.67 µmol/L/min | 86.32 ± 4.49 min⁻¹
3 | B3 | completely abrogated | 18.59 ± 1.98 µmol/L/min | 123.95 ± 13.19 min⁻¹
4 | B4 | completely abrogated | 8.91 ± 0.66 µmol/L/min | 59.42 ± 4.40 min⁻¹
5 | B5 |  | 20.93 ± 2.01 µmol/L/min | 139.56 ± 13.45 min⁻¹
6 | B6 |  | 6.34 ± 0.40 µmol/L/min | 42.31 ± 2.70 min⁻¹
7 | B7 |  | 18.83 ± 1.94 µmol/L/min | 125.55 ± 12.95 min⁻¹
8 | B8 |  | 15.12 ± 0.48 µmol/L/min | 100.85 ± 3.22 min⁻¹
9 | B9 |  | 7.49 ± 2.57 µmol/L/min | 49.94 ± 17.14 min⁻¹
10 | B10 |  | 19.38 ± 1.74 µmol/L/min | 129.23 ± 11.62 min⁻¹
11 | B11 |  | 18.67 ± 2.24 µmol/L/min | 124.46 ± 14.96 min⁻¹
12 | B12 |  | 0.45 ± 0.03 µmol/L/min | 3.02 ± 0.21 min⁻¹
13 | B13 |  | 10.24 ± 1.15 µmol/L/min | 68.26 ± 7.70 min⁻¹
14 | B14 |  | 11.60 ± 3.30 µmol/L/min | 77.36 ± 22.04 min⁻¹
